Data set [1] concerns the molecule itself. Kind of data set: crystal structure; apo-GkOYE.8 at 15 mg/mL, hanging drop, 0.1 M glycine pH 9.0, 25% (w/v) polyethylene glycol 2000, 15% (w/v) glycerol, 20 °C; 3.11 Å.
Substrate in data set [2]: O=Cc1ccc([N+](=O)[O-])cc1
Kind of data set: initial velocity of MBH adduct formation by HPLC, Michaelis-Menten fit. It is filed as biochemical, Geobacillus kaustophilus. As to conditions: 5 mM 2-cyclopenten-1-one, PBS pH 10.0, 3% methanol, 25 °C. An excerpt:
(§1) initial velocity of MBH adduct formation by HPLC, Michaelis-Menten fit on GkOYE

Substrate in data set [3]: O=C1C=CCC1
The data set is described as above. It is filed as biochemical, Geobacillus kaustophilus. The following applies: 4 mM 4-nitrobenzaldehyde, PBS pH 10.0, 3% methanol, 25 °C.
Source text: as §1

[4] abbreviates: GkOYE.8, MBH reaction, no FMN, covalent intermediate at C26.

B1: GkOYE.8 (GkOYE^Q102A/Y169F/R215A/R308A) (enzyme, Geobacillus kaustophilus)
chain: MNTMLFSPYTIRGLTLKNRIVMSPMCMYSCDTKDGAVRTWHKIHYPARAVGQVGLIIVEATGVTPQGRISERDLGIWSDDHIAGLRELVGLVKEHGAAIGIALAHAGRKSQVPGEIIAPSAVPFDDSSPTPKEMTKADIEETVQAFQNGARRAKEAGFDVIEIHAAHGFLINEFLSPLSNRRQDEYGGSPENRYRFLGEVIDAVREVWDGPLFVAISASDYHPDGLTAKDYVPYAKRMKEQGVDLVDVSSGAIVPARMNVYPGYQVPFAELIRREADIPTGAVGLITSGWQAEEILQNGRADLVFLGAELLRNPYWPYAAARELGAKISAPVQYERGWRF
notes: FMN-free (apo); Expressed from the plasmid pET28a-GkOYE.8; also called apo-GkOYE.8; source: E. coli BL21(DE3), purified (Strep-Tactin column; HisTrap HP column for crystallization)
Usually stoichiometry N stands for the number of molecules, sites or subunits per partner or assembly. Broadly, the Km is the concentration of substrate that gives half-maximal velocity. Broadly, the kcat is the number of substrate molecules converted per active site and unit of time at saturation. The kcat/Km is the turnover number divided by the Michaelis constant. With B1, the “stoichiometry N” value in data set [1] was found to be 2. Moreover, in data set [2] (GkOYE.8, MBH reaction, no FMN), the Michaelis constant (Km) was 15.98 mM, the kcat came out at 0.000458 s⁻¹ and the catalytic efficiency (kcat/Km) stood at 0.0278 M⁻¹ s⁻¹. Moreover, in data set [3] (setting [4]), the Km is on record as 4.28 mM, the kcat stood at 0.000178 s⁻¹ and the specificity constant (kcat/Km) amounted to 0.0417 M⁻¹ s⁻¹.

B2: GkOYE (Geobacillus kaustophilus HTA426; Q102A/R215A/R308A/Y169W) (protein)
chain: MNTMLFSPYTIRGLTLKNRIVMSPMCMYSCDTKDGAVRTWHKIHYPARAVGQVGLIIVEATGVTPQGRISERDLGIWSDDHIAGLRELVGLVKEHGAAIGIALAHAGRKSQVPGEIIAPSAVPFDDSSPTPKEMTKADIEETVQAFQNGARRAKEAGFDVIEIHAAHGWLINEFLSPLSNRRQDEYGGSPENRYRFLGEVIDAVREVWDGPLFVAISASDYHPDGLTAKDYVPYAKRMKEQGVDLVDVSSGAIVPARMNVYPGYQVPFAELIRREADIPTGAVGLITSGWQAEEILQNGRADLVFLGAELLRNPYWPYAAARELGAKISAPVQYERGWRF
notes: recombinant, Strep-tagged, pET28a, E. coli BL21(DE3); Strep-Tactin purified; dimer in crystal
Take B2: in data set [2] (GkOYE.12, MBH reaction), the Km came to 17.28 mM, the kcat came to 0.000422 s⁻¹ and the kcat/Km came out at 0.025 M⁻¹ s⁻¹. Moreover, in data set [3] (GkOYE.12, MBH reaction), the Michaelis-Menten constant (Km) is recorded as 4.50 mM, the kcat is 0.000167 s⁻¹ and the kcat/Km is 0.0361 M⁻¹ s⁻¹.

B3: GkOYE (Geobacillus kaustophilus HTA426; D247I/G62W/H167A/Q102A/R215A/R308A/Y169F) (protein)
chain: MNTMLFSPYTIRGLTLKNRIVMSPMCMYSCDTKDGAVRTWHKIHYPARAVGQVGLIIVEATWVTPQGRISERDLGIWSDDHIAGLRELVGLVKEHGAAIGIALAHAGRKSQVPGEIIAPSAVPFDDSSPTPKEMTKADIEETVQAFQNGARRAKEAGFDVIEIHAAAGFLINEFLSPLSNRRQDEYGGSPENRYRFLGEVIDAVREVWDGPLFVAISASDYHPDGLTAKDYVPYAKRMKEQGVDLVIVSSGAIVPARMNVYPGYQVPFAELIRREADIPTGAVGLITSGWQAEEILQNGRADLVFLGAELLRNPYWPYAAARELGAKISAPVQYERGWRF
notes: as for B2
Turning to B3, in data set [2] (GkOYE.11, MBH reaction), the Km came out at 11.22 mM, the kcat was 0.000478 s⁻¹ and the kcat/Km is 0.0417 M⁻¹ s⁻¹. In addition, in data set [3] (GkOYE.11, MBH reaction), the Km was determined as 1.70 mM, the kcat was found to be 0.00019 s⁻¹ and the specificity constant (kcat/Km) is 0.114 M⁻¹ s⁻¹.

B4: GkOYE (Geobacillus kaustophilus HTA426; G62W/Q102A/R215A/R308A/Y169F) (protein)
chain: MNTMLFSPYTIRGLTLKNRIVMSPMCMYSCDTKDGAVRTWHKIHYPARAVGQVGLIIVEATWVTPQGRISERDLGIWSDDHIAGLRELVGLVKEHGAAIGIALAHAGRKSQVPGEIIAPSAVPFDDSSPTPKEMTKADIEETVQAFQNGARRAKEAGFDVIEIHAAHGFLINEFLSPLSNRRQDEYGGSPENRYRFLGEVIDAVREVWDGPLFVAISASDYHPDGLTAKDYVPYAKRMKEQGVDLVDVSSGAIVPARMNVYPGYQVPFAELIRREADIPTGAVGLITSGWQAEEILQNGRADLVFLGAELLRNPYWPYAAARELGAKISAPVQYERGWRF
notes: as for B2
On to B4, for which, in data set [2] (GkOYE.9, MBH reaction), the Km came out at 12.44 mM, the catalytic constant (kcat) amounted to 0.000442 s⁻¹ and the specificity constant (kcat/Km) worked out at 0.0361 M⁻¹ s⁻¹. In data set [3] (GkOYE.9, MBH reaction), the Km amounted to 2.00 mM, the kcat amounted to 0.000181 s⁻¹ and the kcat/Km came to 0.0917 M⁻¹ s⁻¹.

B5: GkOYE (Geobacillus kaustophilus HTA426; G62N/Q102A/R215A/R308A/Y169W) (protein)
chain: MNTMLFSPYTIRGLTLKNRIVMSPMCMYSCDTKDGAVRTWHKIHYPARAVGQVGLIIVEATNVTPQGRISERDLGIWSDDHIAGLRELVGLVKEHGAAIGIALAHAGRKSQVPGEIIAPSAVPFDDSSPTPKEMTKADIEETVQAFQNGARRAKEAGFDVIEIHAAHGWLINEFLSPLSNRRQDEYGGSPENRYRFLGEVIDAVREVWDGPLFVAISASDYHPDGLTAKDYVPYAKRMKEQGVDLVDVSSGAIVPARMNVYPGYQVPFAELIRREADIPTGAVGLITSGWQAEEILQNGRADLVFLGAELLRNPYWPYAAARELGAKISAPVQYERGWRF
notes: as for B2
For B5, in data set [2] (GkOYE.13, MBH reaction), the Km came out at 12.10 mM, the turnover number (kcat) came to 0.000461 s⁻¹ and the specificity constant (kcat/Km) was 0.0389 M⁻¹ s⁻¹. For the same protein, in data set [3] (GkOYE.13, MBH reaction), the Michaelis constant (Km) is on record as 1.91 mM, the kcat came out at 0.000189 s⁻¹ and the specificity constant (kcat/Km) is 0.1 M⁻¹ s⁻¹.
